Reference: US9176064B2, “Bisubstrate fluorescent probes for protein kinase CK2” (University of Tartu, priority 2012, dated 2015)
Where a SMILES comes first, the peptide text is derived from it. [ ]: non-standard residue; d: D form. The star is where a group is joined. X1 = O=C(CCCCCCCn1cnc2c(Br)c(Br)c(Br)c(Br)c21)*

What was measured:
Test in all cases: Kinase panel residual activity
Type in all cases: biochemical
Details in all cases: compound at 1 micromolar
[1] = molecular target: CLK2 (Homo sapiens, UniProt P49760)
[2] = molecular target: CK1δ (Homo sapiens, UniProt P48730)
CK1δ, sequence (P48730 whole entry): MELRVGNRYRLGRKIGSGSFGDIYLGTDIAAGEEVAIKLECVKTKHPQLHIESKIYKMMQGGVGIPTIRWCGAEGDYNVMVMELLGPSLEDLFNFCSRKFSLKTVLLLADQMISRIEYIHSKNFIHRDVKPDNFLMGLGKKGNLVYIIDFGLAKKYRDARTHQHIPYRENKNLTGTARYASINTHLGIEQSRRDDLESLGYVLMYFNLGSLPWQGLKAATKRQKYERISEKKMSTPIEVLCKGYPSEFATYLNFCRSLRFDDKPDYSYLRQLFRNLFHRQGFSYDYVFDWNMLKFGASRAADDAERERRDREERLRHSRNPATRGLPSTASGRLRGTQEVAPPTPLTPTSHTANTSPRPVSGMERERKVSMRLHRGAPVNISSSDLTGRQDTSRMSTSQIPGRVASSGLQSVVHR

[3] = molecular target: SRPK1 (Homo sapiens, UniProt Q96SB4)
[4] = molecular target: S6K1 (Homo sapiens, UniProt P23443)
S6K1, sequence (P23443 whole entry, species assumed): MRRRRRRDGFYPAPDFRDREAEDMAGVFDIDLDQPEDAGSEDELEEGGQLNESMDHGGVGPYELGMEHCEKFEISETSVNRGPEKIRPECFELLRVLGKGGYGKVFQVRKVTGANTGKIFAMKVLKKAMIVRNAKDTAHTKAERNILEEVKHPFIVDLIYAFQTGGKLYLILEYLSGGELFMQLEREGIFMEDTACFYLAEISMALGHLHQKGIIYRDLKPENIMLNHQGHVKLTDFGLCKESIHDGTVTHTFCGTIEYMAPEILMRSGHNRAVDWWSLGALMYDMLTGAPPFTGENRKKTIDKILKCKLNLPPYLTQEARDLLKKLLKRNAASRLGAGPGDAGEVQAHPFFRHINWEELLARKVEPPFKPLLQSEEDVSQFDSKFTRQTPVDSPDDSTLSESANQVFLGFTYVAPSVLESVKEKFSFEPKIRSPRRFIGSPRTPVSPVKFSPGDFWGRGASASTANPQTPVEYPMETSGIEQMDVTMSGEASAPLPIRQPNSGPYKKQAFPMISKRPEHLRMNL

[5] = molecular target: IR (Homo sapiens, UniProt P06213)
IR, sequence (P06213 28-1382): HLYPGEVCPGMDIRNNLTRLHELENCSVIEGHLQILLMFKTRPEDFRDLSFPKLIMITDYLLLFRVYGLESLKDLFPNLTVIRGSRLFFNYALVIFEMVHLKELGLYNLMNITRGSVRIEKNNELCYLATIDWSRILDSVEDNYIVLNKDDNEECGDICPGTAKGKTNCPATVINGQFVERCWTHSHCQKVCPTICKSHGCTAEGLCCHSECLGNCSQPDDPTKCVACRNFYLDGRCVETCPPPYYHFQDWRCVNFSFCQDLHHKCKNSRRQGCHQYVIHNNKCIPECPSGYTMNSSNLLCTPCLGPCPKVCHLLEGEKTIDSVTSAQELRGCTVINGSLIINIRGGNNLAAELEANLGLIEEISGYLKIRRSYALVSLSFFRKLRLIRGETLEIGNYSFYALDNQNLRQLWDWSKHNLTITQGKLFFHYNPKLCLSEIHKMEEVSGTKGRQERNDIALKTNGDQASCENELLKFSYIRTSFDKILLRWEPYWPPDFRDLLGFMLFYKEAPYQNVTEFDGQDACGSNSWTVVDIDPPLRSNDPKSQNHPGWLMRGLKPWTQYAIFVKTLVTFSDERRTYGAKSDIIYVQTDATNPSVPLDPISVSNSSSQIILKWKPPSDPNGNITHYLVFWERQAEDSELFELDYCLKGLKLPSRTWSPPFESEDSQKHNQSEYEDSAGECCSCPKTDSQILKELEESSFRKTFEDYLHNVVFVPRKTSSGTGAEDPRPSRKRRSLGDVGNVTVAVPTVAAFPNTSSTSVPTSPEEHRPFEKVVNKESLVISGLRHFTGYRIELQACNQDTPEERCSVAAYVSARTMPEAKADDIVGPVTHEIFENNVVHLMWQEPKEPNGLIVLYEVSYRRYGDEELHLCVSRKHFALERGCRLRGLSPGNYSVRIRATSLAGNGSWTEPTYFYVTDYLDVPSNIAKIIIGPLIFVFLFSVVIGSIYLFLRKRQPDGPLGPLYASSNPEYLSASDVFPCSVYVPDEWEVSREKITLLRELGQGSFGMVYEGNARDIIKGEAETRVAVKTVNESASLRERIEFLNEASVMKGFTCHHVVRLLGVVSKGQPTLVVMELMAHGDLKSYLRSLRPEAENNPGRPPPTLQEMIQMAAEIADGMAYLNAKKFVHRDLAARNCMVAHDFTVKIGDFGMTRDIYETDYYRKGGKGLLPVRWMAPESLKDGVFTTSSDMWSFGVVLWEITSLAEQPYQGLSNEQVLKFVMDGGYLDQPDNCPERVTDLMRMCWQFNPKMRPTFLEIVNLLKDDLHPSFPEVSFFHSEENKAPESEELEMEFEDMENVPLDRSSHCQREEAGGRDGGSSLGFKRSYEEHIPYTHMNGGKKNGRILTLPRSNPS

[6] = molecular target: MARK1 (Homo sapiens, UniProt Q9P0L2)
[7] = molecular target: T1, IKKe (Homo sapiens, UniProt Q14164)
T1 sequence (Q14164 1-716): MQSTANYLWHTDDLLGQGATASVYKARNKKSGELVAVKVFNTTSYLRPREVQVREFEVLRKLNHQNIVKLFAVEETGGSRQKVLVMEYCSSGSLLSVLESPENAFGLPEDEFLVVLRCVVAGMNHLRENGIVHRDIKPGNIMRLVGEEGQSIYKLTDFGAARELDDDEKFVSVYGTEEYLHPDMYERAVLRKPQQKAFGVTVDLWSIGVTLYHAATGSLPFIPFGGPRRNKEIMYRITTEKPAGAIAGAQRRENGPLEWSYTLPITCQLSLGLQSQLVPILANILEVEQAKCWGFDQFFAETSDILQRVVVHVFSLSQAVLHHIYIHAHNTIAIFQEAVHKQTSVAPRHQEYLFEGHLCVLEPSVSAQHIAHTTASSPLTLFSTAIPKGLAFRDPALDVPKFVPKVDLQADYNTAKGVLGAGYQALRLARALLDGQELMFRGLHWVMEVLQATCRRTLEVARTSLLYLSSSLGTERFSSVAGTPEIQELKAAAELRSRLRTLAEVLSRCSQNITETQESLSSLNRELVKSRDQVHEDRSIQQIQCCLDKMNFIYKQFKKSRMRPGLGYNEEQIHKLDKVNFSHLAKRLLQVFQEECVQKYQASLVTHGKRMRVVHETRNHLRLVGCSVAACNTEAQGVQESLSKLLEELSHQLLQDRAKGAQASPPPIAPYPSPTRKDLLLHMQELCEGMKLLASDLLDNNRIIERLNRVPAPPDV

[8] = molecular target: PAK6 (Homo sapiens, UniProt Q9NQU5)
PAK6, sequence (Q9NQU5 whole entry, species assumed): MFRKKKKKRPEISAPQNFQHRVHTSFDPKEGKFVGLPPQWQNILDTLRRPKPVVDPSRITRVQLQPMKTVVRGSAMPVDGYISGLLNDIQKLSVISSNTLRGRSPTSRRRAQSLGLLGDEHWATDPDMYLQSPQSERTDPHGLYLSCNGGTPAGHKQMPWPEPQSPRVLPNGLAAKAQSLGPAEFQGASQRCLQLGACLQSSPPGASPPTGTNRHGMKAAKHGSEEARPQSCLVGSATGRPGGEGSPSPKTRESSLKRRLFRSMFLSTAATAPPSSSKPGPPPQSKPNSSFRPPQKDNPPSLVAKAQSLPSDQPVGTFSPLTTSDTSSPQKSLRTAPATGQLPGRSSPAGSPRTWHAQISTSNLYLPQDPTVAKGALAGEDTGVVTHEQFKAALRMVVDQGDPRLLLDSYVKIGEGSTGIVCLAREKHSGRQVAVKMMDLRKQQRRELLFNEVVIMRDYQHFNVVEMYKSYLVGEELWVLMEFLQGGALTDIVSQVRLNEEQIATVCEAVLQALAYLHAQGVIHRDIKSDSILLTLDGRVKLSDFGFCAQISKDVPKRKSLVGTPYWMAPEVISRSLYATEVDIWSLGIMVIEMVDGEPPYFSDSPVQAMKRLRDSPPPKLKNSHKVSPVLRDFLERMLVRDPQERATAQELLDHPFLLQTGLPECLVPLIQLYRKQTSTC

[9] = molecular target: TTBK2 (Homo sapiens, UniProt Q6IQ55)
[10] = molecular target: T2, GCK (Homo sapiens, UniProt Q12851)
T2 sequence (Q12851 1-820): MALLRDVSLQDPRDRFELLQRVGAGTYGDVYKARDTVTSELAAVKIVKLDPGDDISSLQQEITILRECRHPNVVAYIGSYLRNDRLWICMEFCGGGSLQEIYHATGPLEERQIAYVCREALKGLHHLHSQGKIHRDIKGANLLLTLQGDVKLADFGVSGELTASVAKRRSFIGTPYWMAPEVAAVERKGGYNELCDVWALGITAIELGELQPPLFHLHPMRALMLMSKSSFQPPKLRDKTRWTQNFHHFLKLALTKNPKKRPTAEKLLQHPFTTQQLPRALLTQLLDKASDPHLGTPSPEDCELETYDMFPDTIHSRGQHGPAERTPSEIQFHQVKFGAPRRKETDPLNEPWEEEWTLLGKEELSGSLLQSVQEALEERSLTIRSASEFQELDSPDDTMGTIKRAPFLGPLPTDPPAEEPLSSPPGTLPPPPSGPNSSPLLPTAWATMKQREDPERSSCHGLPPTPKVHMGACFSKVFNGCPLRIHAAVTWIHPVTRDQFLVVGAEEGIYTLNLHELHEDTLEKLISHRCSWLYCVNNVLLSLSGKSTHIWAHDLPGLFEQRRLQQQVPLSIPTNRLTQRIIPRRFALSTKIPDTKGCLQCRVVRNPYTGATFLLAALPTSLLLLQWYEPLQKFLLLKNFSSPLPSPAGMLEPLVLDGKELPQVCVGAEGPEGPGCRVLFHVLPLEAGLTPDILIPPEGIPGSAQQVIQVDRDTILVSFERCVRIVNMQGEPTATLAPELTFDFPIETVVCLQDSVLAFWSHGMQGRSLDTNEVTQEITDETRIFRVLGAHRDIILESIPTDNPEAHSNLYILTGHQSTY

[11] = molecular target: MST3 (Homo sapiens, UniProt Q9Y6E0)
MST3, sequence (Q9Y6E0 whole entry, species assumed): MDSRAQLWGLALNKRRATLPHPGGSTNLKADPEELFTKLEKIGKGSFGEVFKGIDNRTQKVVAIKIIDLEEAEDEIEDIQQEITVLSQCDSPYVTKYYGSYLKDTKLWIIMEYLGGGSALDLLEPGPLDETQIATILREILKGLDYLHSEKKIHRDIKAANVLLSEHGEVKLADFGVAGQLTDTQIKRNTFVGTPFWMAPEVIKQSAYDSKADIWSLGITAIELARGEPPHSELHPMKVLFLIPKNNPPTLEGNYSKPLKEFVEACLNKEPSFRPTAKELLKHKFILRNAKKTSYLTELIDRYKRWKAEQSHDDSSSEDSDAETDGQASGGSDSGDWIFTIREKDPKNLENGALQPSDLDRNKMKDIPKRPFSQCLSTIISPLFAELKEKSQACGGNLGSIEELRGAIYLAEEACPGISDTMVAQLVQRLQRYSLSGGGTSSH

[12] = molecular target: JNK1 (Homo sapiens, UniProt P45983)
JNK1, sequence (P45983 whole entry, species assumed): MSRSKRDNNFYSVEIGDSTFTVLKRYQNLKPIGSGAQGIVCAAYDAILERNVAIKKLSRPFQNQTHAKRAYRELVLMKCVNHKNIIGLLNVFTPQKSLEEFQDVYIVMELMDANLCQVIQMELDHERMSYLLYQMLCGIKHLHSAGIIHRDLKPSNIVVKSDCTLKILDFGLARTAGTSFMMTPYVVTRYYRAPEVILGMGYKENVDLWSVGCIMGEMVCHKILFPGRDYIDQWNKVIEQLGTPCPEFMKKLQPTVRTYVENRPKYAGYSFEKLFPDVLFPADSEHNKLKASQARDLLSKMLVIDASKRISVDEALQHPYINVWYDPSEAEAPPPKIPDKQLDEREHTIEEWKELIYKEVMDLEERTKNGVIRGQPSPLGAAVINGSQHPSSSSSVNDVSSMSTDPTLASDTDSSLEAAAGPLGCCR

[13] = molecular target: T3, PKCz (Homo sapiens, UniProt Q05513)
T3 sequence (Q05513 1-592): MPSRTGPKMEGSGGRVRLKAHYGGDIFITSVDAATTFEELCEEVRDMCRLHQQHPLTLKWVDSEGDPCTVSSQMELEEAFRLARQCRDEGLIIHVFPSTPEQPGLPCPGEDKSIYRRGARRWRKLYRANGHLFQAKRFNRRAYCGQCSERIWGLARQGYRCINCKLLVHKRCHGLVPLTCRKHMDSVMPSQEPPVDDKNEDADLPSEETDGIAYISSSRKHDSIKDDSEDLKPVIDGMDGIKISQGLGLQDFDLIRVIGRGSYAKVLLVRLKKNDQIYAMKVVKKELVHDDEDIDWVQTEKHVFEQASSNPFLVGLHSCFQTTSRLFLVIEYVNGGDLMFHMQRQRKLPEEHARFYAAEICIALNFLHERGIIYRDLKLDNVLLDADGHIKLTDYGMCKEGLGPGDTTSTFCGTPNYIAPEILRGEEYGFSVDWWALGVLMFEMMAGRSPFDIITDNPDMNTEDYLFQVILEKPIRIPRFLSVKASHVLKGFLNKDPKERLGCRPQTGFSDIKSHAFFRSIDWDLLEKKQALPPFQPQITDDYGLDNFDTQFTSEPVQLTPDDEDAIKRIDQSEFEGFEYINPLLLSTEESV

[14] = molecular target: ERK1 (Homo sapiens, UniProt P27361)
ERK1, sequence (P27361 whole entry, species assumed): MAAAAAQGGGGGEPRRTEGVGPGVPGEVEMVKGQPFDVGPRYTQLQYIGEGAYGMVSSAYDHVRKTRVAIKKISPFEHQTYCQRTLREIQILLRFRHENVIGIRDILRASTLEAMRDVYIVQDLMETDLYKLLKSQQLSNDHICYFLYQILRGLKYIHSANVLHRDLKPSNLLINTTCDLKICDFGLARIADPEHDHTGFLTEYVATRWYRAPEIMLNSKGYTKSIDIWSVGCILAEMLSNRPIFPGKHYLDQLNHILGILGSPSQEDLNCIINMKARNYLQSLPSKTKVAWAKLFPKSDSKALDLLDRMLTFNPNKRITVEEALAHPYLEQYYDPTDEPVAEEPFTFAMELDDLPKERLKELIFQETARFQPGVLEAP

[15] = molecular target: EPH-A4 (Homo sapiens, UniProt P54764)
[16] = molecular target: OSR1 (Homo sapiens, UniProt O95747)
OSR1, sequence (O95747 whole entry): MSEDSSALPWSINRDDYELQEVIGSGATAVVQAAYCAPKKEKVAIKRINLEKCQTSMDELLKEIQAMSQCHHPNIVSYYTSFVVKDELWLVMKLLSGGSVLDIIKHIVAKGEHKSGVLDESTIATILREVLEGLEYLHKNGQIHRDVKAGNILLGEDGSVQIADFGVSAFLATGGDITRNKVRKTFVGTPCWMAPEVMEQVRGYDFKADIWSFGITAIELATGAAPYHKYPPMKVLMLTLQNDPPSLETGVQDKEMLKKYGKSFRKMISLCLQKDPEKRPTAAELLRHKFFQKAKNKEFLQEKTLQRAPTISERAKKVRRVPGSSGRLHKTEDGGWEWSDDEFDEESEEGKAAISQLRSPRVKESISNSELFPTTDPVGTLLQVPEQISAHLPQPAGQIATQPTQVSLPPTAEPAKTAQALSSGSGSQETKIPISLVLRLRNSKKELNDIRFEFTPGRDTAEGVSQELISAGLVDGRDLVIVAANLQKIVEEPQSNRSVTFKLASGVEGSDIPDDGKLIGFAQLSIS

NCCCC[C@H](NC(=O)[C@H](CC(=O)O)NC(=O)[C@H](CC(=O)O)NC(=O)[C@H](CC(=O)O)NC(=O)[C@H](CC(=O)O)NC(=O)[C@H](CC(=O)O)NC(=O)[C@@H](CC(=O)O)NC(=O)CCCCCCCn1cnc2c(Br)c(Br)c(Br)c(Br)c21)C(=O)O [TBBI-OcA-(D-Asp)-(L-Asp)5-(L-Lys)-OH] (X1-[dD]DDDDDK-OH)
remaining activity at 1 µM [1]: 24% | remaining activity at 1 µM [2]: 49% | remaining activity at 1 µM [3]: 61% | remaining activity at 1 µM [4]: 62% | remaining activity at 1 µM [5]: 70% | remaining activity at 1 µM [6]: 83% | remaining activity at 1 µM [7]: 84% | remaining activity at 1 µM [8]: 86% | remaining activity at 1 µM [9]: 95% | remaining activity at 1 µM [10]: 95% | remaining activity at 1 µM [11]: 100% | remaining activity at 1 µM [12]: 103% | remaining activity at 1 µM [13]: 105% | remaining activity at 1 µM [14]: 110% | remaining activity at 1 µM [15]: 117% | remaining activity at 1 µM [16]: 130%
